B1: mouse APRIL (ligand, UniProt Q9D777 96-241, looked up)
chain: AVLTQKHKKKHSVLHLVPVNITSKADSDVTEVMWQPVLRRGRGLEAQGDIVRVWDTGIYLLYSQVLFHDVTFTMGQVVSREGQGRRETLFRCIRSMPSDPDRAYNSCYSAGVFHLHQGDIITVKIPRANAKLSLSPHGTFLGFVKL
notes: Bought recombinant protein; also called mAPRIL

How the values were obtained:
[1] = target: T1, human TACI (R&D Systems receptor chimera) (human, UniProt O14836 2-166); experiment: Biacore, binder captured, APRIL injected at 50 nM
T1 construct: also called hTACI; TACI rec Human
T1 sequence (looked up): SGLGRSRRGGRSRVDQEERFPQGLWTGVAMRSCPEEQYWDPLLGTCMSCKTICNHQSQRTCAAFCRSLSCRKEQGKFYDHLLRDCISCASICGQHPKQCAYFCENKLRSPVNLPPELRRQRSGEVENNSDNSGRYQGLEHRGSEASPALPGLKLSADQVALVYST
Protocol: (§1) Recombinant protein NG (Thermo Scientific, Cat #21186) was diluted to 100 μg/ml in 10 mM Sodium Acetate pH 4.0 and then immobilized on the surface of a pre-activated Series S CM4 Biacore chip (GE, Cat #BR-1005-34) using amine coupling. […] Binding response was measured as the difference in total RU increase during 300 second APRIL injection of each individual flow cell and the reference flow cell (e.g., Flow cell 2-1).

soluble human BLyS [2] = target: T2, soluble human BLyS (human, UniProt Q9Y275 134-285); experiment: DELFIA competition, Eu-hBLyS binding to coated BR3
T2 construct: also called hBLyS; human BAFF (BLyS)
Protocol: (§2) After 5× washing with 200 ul/well of DELFIA 1× wash solution (PE, Cat #4010-0010), plates were blocked with 3% BSA purified from trace heavy metal amounts (PE, Cat #CR84-100) for 3 hours with shaking at room temperature. Plates were washed again five times at 200 μl/well with DELFIA wash solution.
(§3) The final 3 wells across the plate served as controls (2 wells contained 2,000 pM mAbs for negative and background controls while the third contained no mAbs for positive control). […] After 18-24 hrs at 4° C., plates were read on PE EnVision plate reader with laser excitation, LANCE/DELFIA top mirror, and emission filter Eu-615 with a delay of 400 μs. Data were fit to four parameter (variable slope) inhibition dose response curve using GraphPad PRISM 5.0 software.

soluble human BLyS [3] = target: T2, soluble human BLyS; experiment: cell-based or functional assay
soluble mouse BLyS [4] = target: T3, soluble mouse BLyS (mouse, UniProt Q9WU72 127-309); experiment: DELFIA competition, Eu-mBLyS binding to coated BR3
T3 construct: europium-labelled in DELFIA; also called mBLyS; mouse BAFF (BLyS)
Protocol: as §2, §3

soluble human BLyS [5] = target: T2, soluble human BLyS; experiment: ELISA, soluble hBLyS
soluble human BLyS [6] = target: T2, soluble human BLyS; experiment: blocking of biotinylated soluble hBLyS binding to immobilized mBR3
soluble mouse BLyS [7] = target: T3, soluble mouse BLyS; experiment: ELISA, soluble mBLyS
soluble mouse BLyS [8] = target: T3, soluble mouse BLyS; experiment: Biacore, antibody captured on chip, BLyS injected, 1:1 model, 25 C
Protocol: (§4) Recombinant protein NG (Thermo Scientific, Cat #21186) was diluted to 100 μg/ml in 10 mM sodium acetate pH 4.0 and then immobilized on the surface of a pre-activated Series S CM5 Biacore chip (GE, Cat #BR-1005-34) using amine coupling. […] After the dissociation period, the chip was regenerated back to baseline by injecting 10 mM glycine pH 1.5 for 120 seconds over the four flow cells. […] The entire data set was fit to a 1:1 interaction model to give kₒₙ, koff, and Kd values. The assay was run at 25° C. in 1× biacore running buffer HBS-EP+ (GE, Cat #BR-1006-69).

soluble human BLyS [9] = target: T2, soluble human BLyS; experiment: as above
Protocol: as §4

mouse APRIL = target: B1; experiment: Biacore, antibody captured, APRIL injected
Protocol: as §1

human APRIL = target: T4, human APRIL (human, UniProt O75888 105-250, limits assumed); experiment: Biacore, antibody captured, APRIL injected
T4 construct: Bought recombinant protein; also called hAPRIL
T4 sequence (looked up): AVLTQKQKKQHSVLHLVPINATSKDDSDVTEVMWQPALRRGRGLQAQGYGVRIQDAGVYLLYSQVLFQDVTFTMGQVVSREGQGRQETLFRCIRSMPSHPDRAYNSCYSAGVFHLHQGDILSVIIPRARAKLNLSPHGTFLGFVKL
Protocol: as §1

soluble mouse BLyS [10] = target: T3, soluble mouse BLyS; experiment: DELFIA competition, Eu-mBLyS binding to coated BCMA
Protocol: as §2, §3

soluble mouse BLyS [11] = target: T3, soluble mouse BLyS; experiment: cell-based or functional assay
soluble mouse BLyS [12] = target: T3, soluble mouse BLyS; experiment: DELFIA competition, Eu-mBLyS binding to coated TACI
Protocol: as §2, §3

soluble cynomolgus BLyS = target: T5, soluble cynomolgus BLyS (cynomolgus, UniProt A0A2K5V2X4 134-285); experiment: ELISA, soluble cyBLyS
T5 construct: Soluble form; also called cyBLyS; Soluble cyBLyS

soluble human BLyS [13] = target: T2, soluble human BLyS; experiment: DELFIA competition, Eu-hBLyS binding to coated BCMA
Protocol: as §2, §3

soluble human BLyS [14] = target: T2, soluble human BLyS; experiment: DELFIA competition, Eu-hBLyS binding to coated TACI
Protocol: as §2, §3

soluble mouse BLyS [15] = target: T3, soluble mouse BLyS; experiment: Biacore
soluble human BLyS [16] = target: T2, soluble human BLyS; experiment: Biacore

**Q.** Does B1 bind [1]?
**A.** Result: binds

B2: tabalumab (antibody, V domains shown)
VH: QVQLQQWGAGLLKPSETLSLTCAVYGGSFSGYYWSWIRQPPGKGLEWIGEINHSGSTNYNPSLKSRVTISVDTSKNQFSLKLSSVTAADTAVYYCARGYYDILTGYYYYFDYWGQGTLVTVSS
VL: EIVLTQSPATLSLSPGERATLSCRASQSVSRYLAWYQQKPGQAPRLLIYDASNRATGIPARFSGSGSGTDSTLTISSLEPEDFAVYYCQQRSNWPRTFGQGTKVEIKR
**Q.** B2 was tested. Which IC50 (soluble human BLyS [2]) did it give?
**A.** The IC50 was 0.0899 nM.

**Q.** And the “IC50 hBLyS stimulated, mouse splenic B-cell proliferation” value (soluble human BLyS [3])?
**A.** Its value is 4 ng/mL.

**Q.** And the IC50 (soluble mouse BLyS [4])?
**A.** The IC50 was over 2 nM.

B3: 5B7 IgG expressed in HEK293 cells (antibody, V domains shown)
VH: QVQLVQSGAEVKKPGASVKVSCKASGGTFSSYAISWVRQAPGQGLEWMGGIIPIFGTANYAQKFQGRVTITADKSTSTAYMELSSLRSEDTAVYYCARVDYDILTGYYMGYFDYWGQGTLVTVSS
VL: DIVMTQSPATLSLSPGERATLSCRASQSVSSYLAWYQQKPGQAPRLLIYDASNRATGIPARFSGSGSGTDFTLTISSLEPEDFAVYYCQQRSNWPITFGQGTRLEIKR
notes: also called 5B7 (293); 5B7-HEK293
**Q.** With B3 as the binder, how does the IC50 (soluble human BLyS [2]) read?
**A.** The IC50 was 0.0526 nM.

**Q.** And the IC50 (soluble human BLyS [5])?
**A.** Its IC50 is 0.1 nM.

**Q.** What about the IC50 (soluble human BLyS [6]) of the same binder?
**A.** The IC50 was 0.43 nM.

**Q.** And the IC50 (soluble mouse BLyS [7])?
**A.** The IC50 was 0.16 nM.

**Q.** What about the Kd (soluble mouse BLyS [8]) of the same binder?
**A.** Its Kd is 0.062 nM.

**Q.** What about the koff (soluble mouse BLyS [8]) of the same binder?
**A.** Its koff is 4.2e-05 s⁻¹.

**Q.** What about the kon (soluble mouse BLyS [8]) of the same binder?
**A.** The kon was 670000 M⁻¹ s⁻¹.

**Q.** What about the Kd (soluble human BLyS [9]) of the same binder?
**A.** Its Kd is 0.224 nM.

**Q.** And the koff (soluble human BLyS [9])?
**A.** The koff was 4.2e-05 s⁻¹.

**Q.** What about the kon (soluble human BLyS [9]) of the same binder?
**A.** The kon was 190000 M⁻¹ s⁻¹.

**Q.** Does B3 bind (mouse APRIL)?
**A.** Result: no binding (tested: 50 nM)

**Q.** Does B3 bind (human APRIL)?
**A.** Result: no binding (tested: 50 nM)

**Q.** What about the IC50 (soluble mouse BLyS [10]) of the same binder?
**A.** The IC50 was 1.3 pM.

**Q.** What about the “IC50 mBLyS stimulated, mouse splenic B-cell proliferation” value (soluble mouse BLyS [11]) of the same binder?
**A.** Its value is 3 ng/mL.

**Q.** And the “IC50 hBLyS stimulated, mouse splenic B-cell proliferation” value (soluble human BLyS [3])?
**A.** The value was 4 ng/mL.

**Q.** And the IC50 (soluble mouse BLyS [12])?
**A.** Its IC50 is under 0.3 pM.

**Q.** What about the IC50 (soluble cynomolgus BLyS) of the same binder?
**A.** Its IC50 is 0.08 nM.

**Q.** And the IC50 (soluble human BLyS [13])?
**A.** Its IC50 is 1.8 pM.

**Q.** What about the IC50 (soluble human BLyS [14]) of the same binder?
**A.** The IC50 was under 0.3 pM.

**Q.** What about the IC50 (soluble mouse BLyS [4]) of the same binder?
**A.** The IC50 was 0.107 nM.

**Q.** What about the Kd (soluble mouse BLyS [15]) of the same binder?
**A.** The Kd was 0.0145 nM.

**Q.** What about the Kd (soluble human BLyS [16]) of the same binder?
**A.** The Kd was 0.4 nM.
